# B1: DrSUT1 (Dioscorea cayenensis subsp. rotundata) (protein)
# chain: MDAVSIRVPYRNLKEAELELEMGHLNGDPSGEIHDLGSRPSGGLPPSFPSASPSSPDEYGSSDASHRSQPRSSMKTLVLSCIVAAGVQFGWALQLSLLTPYIQTLGIEHAFSSFIWLCGPITGFIVQPCVGIWSDKCTLKLGRRRPFILAGSLMISFAVILIGFAADIGYLLGDTDQDCRSYKGPRWRAAAIFVIGFWMLDLANNTVQGPARALLADLSGPDQCNSANAIFCSWMALGNILGFSSGANGNWHRWFPFLTTKACCEACGNLKAAFLVAVIFLMFCTFVTLYFAKEVPLEAKPTQQFSDGAPLLNDKQQHGHRGSPTNSPKLENGEKLSVDLMADKASSRNPSNFDRNAKNDEMEALSDGPGAVLVKLLTSLRHLPPGMYSVLLVMALTWSSWFPFFLFDTDWMGREVYRGDPSGTESEIGSYQKGVRDGAFGLLLNSVVLLVASFLIDPICRRMGARMVWAMSNFIVFICMAATTIISLWSINEHLTGIQHVVGANKAVRVGALVIFSLLGFPLAITYSVPFSVTAELTADSGGGQGLATGVLNLAIVIPQMVVALGAGPWDALFGGGNIPAFALASAFALAASFLAFKRLPTLSGSYSSVGFHGFG
# notes: no tag told
# Substrate: OC[C@H]1O[C@@](CO)(O[C@H]2O[C@H](CO)[C@@H](O)[C@H](O)[C@H]2O)[C@@H](O)[C@@H]1O
# Assay: cells, lysate or membranes
# Assay type: cell-based, Dioscorea cayenensis
# Conditions: PBS pH 5.5, 30 °C, labelled compound, methods print a final sucrose concentration of 100 mM, at odds with a μM Km
protein,measurement,value
B1,Km,76.69 µM

# From PMC12193089, “Genome-Wide Identification, Plasma Membrane Localization, and Functional Validation of the SUT Gene Family in Yam (Dioscorea cayennensis subsp. rotundata)” (International Journal of Molecular Sciences, 2025)
